Laboratory results published in patent US20120094909A1 (Bristol-Myers Squibb, published 2012).

Tests used:
[1] = target: T1, human PCSK9 (proprotein convertase subtilisin kexin type 9) (human, UniProt Q8NBP7 31-692); assay: PCSK9:EGFA FRET, competitor EGFA peptide
T1 construct: immobilized directly (ProteOn), biotinylated (Octet) or in solution, according to the assay; also called hPCSK9; PCSK9-AF647 (labelled form)

[2] = target: T1, human PCSK9 (proprotein convertase …); assay: cell-based or functional assay
[3] = target: T2, human PCSK9 (proprotein convertase subtilisin kexin type 9) (human, UniProt Q8NBP7 31-692); assay: BLI, biotinylated hPCSK9 on sensor tips
T2 construct: Directly immobilized (SPR ProteOn), biotinylated (BLI), or in solution, depending on the assay; also called hPCSK9
Method: Tips were then immersed into a buffer-only well for observation of Adnectin dissociation. Experiments were performed in a temperature controlled environment at either 25 or 37° C., and the oscillation speed was set at 1500 rpm.
Binding interaction analysis was performed using proprietary software from Fortebio (Fortebio Data Analysis Software version 6.3.0.36). Global fits were performed for all samples, using a 1:1 binding model. The nature of these global fits constrained all values of concentration to a single pair of association and dissociation rates that were themselves constrained to each other. Affinities (KD), association and dissociation rates were averaged over the various loading levels used in the analysis.

B1: 2382D08 (designed binder)
chain: MGVSDVPRDLEVVAATPTSLLISWDAPADGYGYYRITYGETGGNSPVQEFTVPVSKGTATISGLKPGVDYTITVYAVEFPFPGSGYYHRPISINYRTEIDKPSQHHHHHH
EC50 [1]: 3.1 nM | LDLR Depletion (% inhibition at 75 nM) [2]: 107%

B2: ATI001168 (designed binder)
chain: MGVSDVPRDLEVVAATPTSLLISWEPPSHAYGYYRITYGETGGNSPVQEFTVPIGKGTATISGLKPGVDYTITVYAVEYPWKGSGYYHRPISINYRTEIDKPSQHHHHHH
Kd [3]: 0.586 nM | koff [3]: 0.000333 s⁻¹ | kon [3]: 583000 M⁻¹ s⁻¹

B3: 2971A03 (designed binder)
chain: MGVSDVPRDLEVVAATPTSLLISWDPPSDDYGYYRITYGETGGNSPVQEFTVPIGKGTATISGLKPGVDYTITVYAVEFPWPHAGYYHRPISINYRTEIDKPSQHHHHHH
notes: Anti-PCSK9 Adnectin, His6-tagged
Kd [3]: 0.806 nM | koff [3]: 0.00042 s⁻¹ | kon [3]: 574000 M⁻¹ s⁻¹

B4: 1784F03-m3 (designed binder)
chain: MGVSDVPRDLEVVAATPTSLLISWDAPAVTYGYYRITYGETGGNSPVQEFTVPGSKSTATISGLKPGVDYTITVYAVEYTFKHSGYYHRPISINYRTEIDKPSQHHHHHH
LDLR Depletion EC50 [2]: > 2000 nM

B5: 1784F03-m1 (designed binder)
chain: MGVSDVPRDLEVVAATPTSLLISWDAPIHAYGYYRITYGETGGNSPVQEFTVPGSEGTATISGLKPGVDYTITVYAVEYTFKHSGYYHRPISINYRTEIDKPSQHHHHHH
LDLR Depletion EC50 [2]: > 2000 nM

B6: ATI001175 (designed binder)
chain: MGVSDVPRDLEVVAATPTSLLISWDPPSHAYGYYRITYGETGGNSPVQEFTVPIGKGTATISGLKPGVDYTITVYAVEYPWKGSGYYHRPISINYRTEIDKPSQHHHHHH
Kd [3]: 0.543 nM | koff [3]: 0.000352 s⁻¹ | kon [3]: 656000 M⁻¹ s⁻¹

B7: 1784F03-m2 (designed binder)
chain: MGVSDVPRDLEVVAATPTSLLISWDAPAHAYGYYRITYGETGGNSPVQEFTVPGSKGTATISGLKPGVDYTITVYAVEYTFKHSGYYHRPISINYRTEIDKPSQHHHHHH
LDLR Depletion EC50 [2]: > 2000 nM

B8: 2011H05(V23E) (designed binder)
chain: MGVSDVPRDLEVVAATPTSLLISWEPSSHAYGYYRITYGETGGNSPVQEFTVPVGVGTATISGLKPGVDYTITVYAVEYAFEGAGYYHRPISINYRTEIDKPSQHHHHHH
EC50 [1]: 7.4 nM | LDLR Depletion EC50 [2]: 12 nM

B9: 2971A09 (designed binder)
chain: MGVSDVPRDLEVVAATPTSLLISWDAPADDYGYYRITYGETGGNSPVQEFTVPIGKGTATISGLKPGVDYTITVYAVEFPWPHAGYYHRPISINYRTEIDKPSQHHHHHH
notes: as for B3
Kd [3]: 2.79 nM | koff [3]: 0.00105 s⁻¹ | kon [3]: 399000 M⁻¹ s⁻¹

B10: 2382H07 (designed binder)
chain: MGVSDVPRDLEVVAATPTSLLISWDAPADAYGYYRITYGETGGNSPVQEFTVPGSKGTATISGLKPGVDYTITVYAVEFDFPGSGYYHRPISINYRTEIDKPSQHHHHHH
EC50 [1]: 2.7 nM | LDLR Depletion (% inhibition at 75 nM) [2]: 86.2%

B11: 2382E09 (designed binder)
chain: MGVSDVPRDLEVVAATPTSLLISWDAPAEAYGYYRITYGETGGNSPVQEFTVPVSKGTATISGLKPGVDYTITVYAVEYDFPGSGYYHRPISINYRTEIDKPSQHHHHHH
EC50 [1]: 6.2 nM | LDLR Depletion (% inhibition at 75 nM) [2]: 97.2%

B12: 2382H11 (designed binder)
chain: MGVSDVPRDLEVVAATPTSLLISWDAPADGYGYYRITYGETGGNSPVQEFTVPVFKGTATISGLKPGVDYTITVYAVEFDYPGSGYYHRPISINYRTEIDKPSQHHHHHH
EC50 [1]: 2.9 nM | LDLR Depletion (% inhibition at 75 nM) [2]: 117%

B13: 2382B11 (designed binder)
chain: MGVSDVPRDLEVVAATPTSLLISWDAPAAAYGYYRITYGETGGNSPVQEFTVPVSKGTATISGLKPGVDYTITVYAVEYDFAGSGYYHRPISINYRTEIDKPSQHHHHHH
EC50 [1]: 2.9 nM | LDLR Depletion (% inhibition at 75 nM) [2]: 88.8%

B14: 2382B08 (designed binder)
chain: MGVSDVPRDLEVVAATPTSLLISWDAPADAYGYYRITYGETGGNSPVQEFTVPSSKGTATISGLKPGVDYTITVYAVEFAFPGAGYYHRPISINYRTEIDKPSQHHHHHH
EC50 [1]: 2.9 nM | LDLR Depletion (% inhibition at 75 nM) [2]: 107%

B15: 2451B02 (designed binder)
chain: MGVSDVPRDLEVVAATPTSLLISWDAPAAAYGYYRITYGETGGNSPVQEFTVPVSKGTATISGLKPGVDYTITVYAVEFDYPGSGYYHRPISINYRTEIDKPSQHHHHHH
EC50 [1]: 5.3 nM | LDLR Depletion (% inhibition at 75 nM) [2]: 71.4%

B16: 2382C11 (designed binder)
chain: MGVSDVPRDLEVVAATPTSLLISWDAPAGGYGYYRITYGETGGNSPVQEFTVPVSKGTATISGLKPGVDYTITVYAVEYDFAGSGYYHRPISINYRTEIDKPSQHHHHHH
EC50 [1]: 3.7 nM | LDLR Depletion (% inhibition at 75 nM) [2]: 82.9%

B17: 2382F09 (designed binder)
chain: MGVSDVPRDLEVVAATPTSLLISWDAPAAAYGYYRITYGETGGNSPVQEFTVPVSKGTATISGLKPGVDYTITVYAVEYDFPGSGYYHRPISINYRTEIDKPSQHHHHHH
EC50 [1]: 3.1 nM | LDLR Depletion (% inhibition at 75 nM) [2]: 110%

B18: 2382F08 (designed binder)
chain: MGVSDVPRDLEVVAATPTSLLISWDAPAEAYGYYRITYGETGGNSPVQEFTVPVSKGTATISGLKPGVDYTITVYAVEFTYPGSGYYHRPISINYRTEIDKPSQHHHHHH
EC50 [1]: 2.5 nM | LDLR Depletion (% inhibition at 75 nM) [2]: 105%

B19: 2011H05(V23D) (designed binder)
chain: MGVSDVPRDLEVVAATPTSLLISWDPSSHAYGYYRITYGETGGNSPVQEFTVPVGVGTATISGLKPGVDYTITVYAVEYAFEGAGYYHRPISINYRTEIDKPSQHHHHHH
EC50 [1]: 5.5 nM | LDLR Depletion EC50 [2]: 18 nM

B20: 2971E02 (designed binder)
chain: MGVSDVPRDLEVVAATPTSLLISWDAPSDDYGYYRITYGETGGNSPVQEFTVPIGKGTATISGLKPGVDYTITVYAVEFPWPHAGYYHRPISINYRTEIDKPSQHHHHHH
notes: as for B3
Kd [3]: 1.78 nM | koff [3]: 0.000555 s⁻¹ | kon [3]: 355000 M⁻¹ s⁻¹

B21: 2011B11 (designed binder)
chain: MGVSDVPRDLEVVAATPTSLLISWAPPSDAYGYYRITYGETGGNSPVQEFTVPIGKGTATISGLKPGVDYTITVYAVEYPYSHAGYYHRPISINYRTEIDKPSQHHHHHH
EC50 [1]: 1.7 nM | LDLR Depletion (% inhibition at 75 nM) [2]: 144%

B22: 2451A02 (designed binder)
chain: MGVSDVPRDLEVVAATPTSLLISWDAPAAGYGYYRITYGETGGNSPVQEFTVPVSKGTATISGLKPGVDYTITVYAVEFPFPGSGYYHRPISINYRTEIDKPSQHHHHHH
EC50 [1]: 3.2 nM | LDLR Depletion (% inhibition at 75 nM) [2]: 106%

B23: ATI001119 (designed binder)
chain: MGVSDVPRDLEVVAATPTSLLISWRPPSNGHGYYRITYGETGGNSPVQEFTVPVNEGTATISGLKPGVDYTITVYAVEFPFKWSGYYHRPISINYRTGSGCHHHHHH
modifications: PEGylated on the cysteine of the C-terminal tail (marked by asterisk in Table 5 as having been pegylated; PEG not specified)
notes: Anti-PCSK9 Adnectin, cysteine mutant of 2012A04, His6-tagged; also called 2012A04 Cys mut
Kd [3]: 5.3 nM | koff [3]: 0.000445 s⁻¹ | kon [3]: 81900 M⁻¹ s⁻¹

B24: ATI001114 (designed binder)
chain: MGVSDVPRDLEVVAATPTSLLISWVPPSDDYGYYRITYGETGGNSPVQEFTVPIGKGTATISGLKPGVDYTITVYAVEFPWPHAGYYHRPISINYRTGSGCHHHHHH
modifications: PEGylated on the cysteine of the C-terminal GSGC tail (two-branched 40 kDa PEG)
notes: PEGylated version of the 2013E01 Adnectin, His6-tagged; also called ATI1114
Kd [3]: 4.88 nM | koff [3]: 0.000395 s⁻¹ | kon [3]: 80700 M⁻¹ s⁻¹

B25: ATI001117 (designed binder)
chain: MGVSDVPRDLEVVAATPTSLLISWVPSSHAYGYYRITYGETGGNSPVQEFTVPVGVGTATISGLKPGVDYTITVYAVEYAFEGAGYYHRPISINYRTGSGCHHHHHH
modifications: PEGylated on the cysteine of the C-terminal tail (marked by asterisk in Table 5 as having been pegylated; PEG not specified)
notes: Anti-PCSK9 Adnectin, cysteine mutant of 2011H05, His6-tagged; also called 2011H05 Cys mut
Kd [3]: 0.554 nM | koff [3]: 5.07e-05 s⁻¹ | kon [3]: 145000 M⁻¹ s⁻¹

B26: 2451B06 (designed binder)
chain: MGVSDVPRDLEVVAATPTSLLISWDAPADGGYGYYRITYGETGGNSPVQEFTVPVSKGTATISGLKPGVDYTITVYAVEFDFPGAGYYHRPISINYRTEIDKPSQHHHHHH
EC50 [1]: 4.5 nM

B27: 1923B02(N82I) (designed binder)
chain: MGVSDVPRDLEVVAATPTSLLISWTPPPKGYGYYRITYGETGGNSPVQEFTVPVGEGTATISGLKPGVDYTITVYAVEYTYIGAGYYHRPISINYRTGSGSHHHHHH
LDLR Depletion EC50 [2]: 14 nM

B28: 1923B02(N82E) (designed binder)
chain: MGVSDVPRDLEVVAATPTSLLISWTPPPKGYGYYRITYGETGGNSPVQEFTVPVGEGTATISGLKPGVDYTITVYAVEYTYEGAGYYHRPISINYRTGSGSHHHHHH
LDLR Depletion EC50 [2]: 28 nM

B29: 1923B02(T80A) (designed binder)
chain: MGVSDVPRDLEVVAATPTSLLISWTPPPKGYGYYRITYGETGGNSPVQEFTVPVGEGTATISGLKPGVDYTITVYAVEYAYNGAGYYHRPISINYRTGSGSHHHHHH
LDLR Depletion EC50 [2]: 42 nM

B30: 1922G04(R25S) (designed binder)
chain: MGVSDVPRDLEVVAATPTSLLISWSPPSHAYGYYRITYGETGGNSPVQEFTVPIGKGTATISGLKPGVDYTITVYAVEYPWKGSGYYHRPISINYRTGSGSHHHHHH
LDLR Depletion EC50 [2]: 21 nM
